Data published in patent US20230250154A1 (CYTONICS, published 2023).
Each block holds one binder with its values, some of them ahead of it.

Experiments:
Assay in all cases: cell-based or functional assay
[1] = target: Elastase
[2] = target: chymotrypsin
[3] = target: bovine trypsin (bovine, UniProt P00760 24-246)
[4] = target: T1, MMP2 (human, UniProt P08253 110-660, limits assumed)
T1 sequence (looked up): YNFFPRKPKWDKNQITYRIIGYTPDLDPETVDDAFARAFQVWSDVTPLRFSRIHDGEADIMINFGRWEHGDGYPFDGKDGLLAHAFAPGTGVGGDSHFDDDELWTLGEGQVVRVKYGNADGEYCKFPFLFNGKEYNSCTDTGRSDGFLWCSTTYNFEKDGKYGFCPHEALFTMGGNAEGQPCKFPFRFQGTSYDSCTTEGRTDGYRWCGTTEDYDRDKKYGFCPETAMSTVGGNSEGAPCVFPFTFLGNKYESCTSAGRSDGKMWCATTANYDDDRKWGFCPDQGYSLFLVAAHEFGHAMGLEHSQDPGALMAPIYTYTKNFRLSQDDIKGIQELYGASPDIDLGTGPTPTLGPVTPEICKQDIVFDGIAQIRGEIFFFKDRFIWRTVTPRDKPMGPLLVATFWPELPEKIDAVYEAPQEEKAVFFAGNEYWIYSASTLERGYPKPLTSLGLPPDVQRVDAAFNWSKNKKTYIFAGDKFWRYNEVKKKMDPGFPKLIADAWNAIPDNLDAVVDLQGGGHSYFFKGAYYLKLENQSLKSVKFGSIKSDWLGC

[5] = target: MMP9 (human, UniProt P14780 107-707, limits assumed)
[6] = target: T2, ADAMTS4 (human, UniProt O75173 213-685, limits assumed)
T2 sequence (looked up): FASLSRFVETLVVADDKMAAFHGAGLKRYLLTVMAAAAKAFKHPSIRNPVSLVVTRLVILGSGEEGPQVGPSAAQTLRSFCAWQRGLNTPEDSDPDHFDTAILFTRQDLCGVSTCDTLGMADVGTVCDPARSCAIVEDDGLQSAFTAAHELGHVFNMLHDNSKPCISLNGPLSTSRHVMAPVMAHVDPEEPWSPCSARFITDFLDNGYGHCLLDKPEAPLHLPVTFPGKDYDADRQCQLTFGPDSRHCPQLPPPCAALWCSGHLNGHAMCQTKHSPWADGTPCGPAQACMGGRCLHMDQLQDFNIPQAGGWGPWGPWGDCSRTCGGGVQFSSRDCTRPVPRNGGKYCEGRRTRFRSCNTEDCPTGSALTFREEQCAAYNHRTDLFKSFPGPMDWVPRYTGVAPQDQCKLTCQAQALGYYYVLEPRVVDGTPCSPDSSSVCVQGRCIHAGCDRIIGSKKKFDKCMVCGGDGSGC

[7] = target: T3, ADAMTS5 (human, UniProt Q9UNA0 262-622, limits assumed)
T3 sequence (looked up): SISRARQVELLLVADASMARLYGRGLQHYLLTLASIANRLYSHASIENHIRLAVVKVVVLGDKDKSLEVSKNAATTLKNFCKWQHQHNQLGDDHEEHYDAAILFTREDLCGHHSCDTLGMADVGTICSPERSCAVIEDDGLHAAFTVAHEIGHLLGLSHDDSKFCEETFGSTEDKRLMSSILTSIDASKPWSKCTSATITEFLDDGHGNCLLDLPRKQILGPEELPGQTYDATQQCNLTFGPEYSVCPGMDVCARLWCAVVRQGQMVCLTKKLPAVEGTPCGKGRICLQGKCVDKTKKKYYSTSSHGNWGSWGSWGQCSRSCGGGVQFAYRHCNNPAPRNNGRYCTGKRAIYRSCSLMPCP

[8] = target: T4, MMP1 (human, UniProt P03956 100-469, limits assumed)
T4 sequence (looked up): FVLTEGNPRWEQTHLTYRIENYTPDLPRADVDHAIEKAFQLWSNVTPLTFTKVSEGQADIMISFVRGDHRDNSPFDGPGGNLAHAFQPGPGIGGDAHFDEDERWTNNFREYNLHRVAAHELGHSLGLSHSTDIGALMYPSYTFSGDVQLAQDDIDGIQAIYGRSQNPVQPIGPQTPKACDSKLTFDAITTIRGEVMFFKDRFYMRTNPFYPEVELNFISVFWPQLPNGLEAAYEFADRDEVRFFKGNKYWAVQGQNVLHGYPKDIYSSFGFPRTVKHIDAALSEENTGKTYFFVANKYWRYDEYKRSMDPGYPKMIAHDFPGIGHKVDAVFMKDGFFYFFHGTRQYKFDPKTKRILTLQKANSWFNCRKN

[9] = target: MMP3 (human, UniProt P08254 100-477, limits assumed)
[10] = target: MMP8 (human, UniProt P22894 101-467, limits assumed)
[11] = target: MMP13 (human, UniProt P45452 104-471, limits assumed)
[12] = target: MMP12 (human, UniProt P39900 106-470, limits assumed)
Chain of MMP12 (P39900 106-470 limits assumed): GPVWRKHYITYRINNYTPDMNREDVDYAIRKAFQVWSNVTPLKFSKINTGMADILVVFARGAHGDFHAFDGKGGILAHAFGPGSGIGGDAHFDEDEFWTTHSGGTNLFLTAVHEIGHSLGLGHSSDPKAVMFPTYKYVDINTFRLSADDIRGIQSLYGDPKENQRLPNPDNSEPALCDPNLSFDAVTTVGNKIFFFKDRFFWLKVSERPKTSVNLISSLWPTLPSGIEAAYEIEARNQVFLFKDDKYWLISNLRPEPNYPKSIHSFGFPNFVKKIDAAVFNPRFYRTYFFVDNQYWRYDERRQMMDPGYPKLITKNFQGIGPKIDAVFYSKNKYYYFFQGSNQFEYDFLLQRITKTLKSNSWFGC

Chain of MMP8 (P22894 101-467 limits assumed): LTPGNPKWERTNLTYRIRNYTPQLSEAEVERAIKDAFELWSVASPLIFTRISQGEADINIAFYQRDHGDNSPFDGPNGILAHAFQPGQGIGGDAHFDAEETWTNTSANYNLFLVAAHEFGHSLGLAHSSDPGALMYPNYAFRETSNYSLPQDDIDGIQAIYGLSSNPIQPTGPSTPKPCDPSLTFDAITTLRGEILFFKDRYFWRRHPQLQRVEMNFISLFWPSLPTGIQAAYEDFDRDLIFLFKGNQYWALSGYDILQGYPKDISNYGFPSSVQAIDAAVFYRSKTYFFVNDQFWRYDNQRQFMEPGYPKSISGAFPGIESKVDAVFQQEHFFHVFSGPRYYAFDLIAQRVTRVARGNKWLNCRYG
Chain of MMP9 (P14780 107-707 limits assumed): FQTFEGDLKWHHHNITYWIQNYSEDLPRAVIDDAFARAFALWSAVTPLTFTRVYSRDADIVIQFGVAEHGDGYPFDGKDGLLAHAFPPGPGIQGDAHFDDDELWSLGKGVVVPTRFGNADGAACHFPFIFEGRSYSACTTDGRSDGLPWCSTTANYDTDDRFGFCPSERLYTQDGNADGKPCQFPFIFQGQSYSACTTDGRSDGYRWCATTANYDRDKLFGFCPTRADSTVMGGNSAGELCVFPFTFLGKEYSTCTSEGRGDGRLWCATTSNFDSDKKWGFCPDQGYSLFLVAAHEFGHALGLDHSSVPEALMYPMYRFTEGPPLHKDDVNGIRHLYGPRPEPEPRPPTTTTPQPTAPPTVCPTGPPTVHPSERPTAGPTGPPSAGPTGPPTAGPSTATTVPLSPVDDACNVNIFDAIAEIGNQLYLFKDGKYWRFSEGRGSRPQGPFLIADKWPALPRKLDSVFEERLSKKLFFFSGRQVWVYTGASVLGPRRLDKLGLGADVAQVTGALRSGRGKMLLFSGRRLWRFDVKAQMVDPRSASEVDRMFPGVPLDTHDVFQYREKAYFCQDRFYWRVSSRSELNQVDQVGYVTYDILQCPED
Chain of bovine trypsin (P00760 24-246): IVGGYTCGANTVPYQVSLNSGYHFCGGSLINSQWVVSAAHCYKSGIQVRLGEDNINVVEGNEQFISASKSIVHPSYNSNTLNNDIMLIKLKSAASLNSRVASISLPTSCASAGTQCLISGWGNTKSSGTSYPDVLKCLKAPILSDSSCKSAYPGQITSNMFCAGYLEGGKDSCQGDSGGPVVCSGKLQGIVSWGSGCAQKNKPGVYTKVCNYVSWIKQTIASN
Chain of MMP3 (P08254 100-477 limits assumed): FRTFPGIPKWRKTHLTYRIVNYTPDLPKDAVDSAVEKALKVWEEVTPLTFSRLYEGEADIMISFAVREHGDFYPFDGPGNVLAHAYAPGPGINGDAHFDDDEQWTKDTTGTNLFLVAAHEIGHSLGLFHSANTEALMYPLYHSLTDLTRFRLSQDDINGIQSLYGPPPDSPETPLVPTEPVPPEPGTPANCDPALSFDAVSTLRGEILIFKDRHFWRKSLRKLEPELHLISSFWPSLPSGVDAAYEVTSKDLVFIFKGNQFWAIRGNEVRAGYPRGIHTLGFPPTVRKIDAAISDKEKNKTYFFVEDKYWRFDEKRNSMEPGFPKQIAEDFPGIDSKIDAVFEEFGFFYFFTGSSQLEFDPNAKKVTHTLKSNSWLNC

Protease Inhibition (% of WT) [1]: 50 % of WT
Protease Inhibition (% of WT) [2]: 100 % of WT
Protease Inhibition (% of WT) [3]: 100 % of WT
Protease Inhibition (% of WT) [4]: 110 % of WT
Protease Inhibition (% of WT) [5]: 70 % of WT
Protease Inhibition (% of WT) [6]: 50 % of WT
Protease Inhibition (% of WT) [7]: 90 % of WT
Protease Inhibition (% of WT) [8]: 390 % of WT
Protease Inhibition (% of WT) [9]: 330 % of WT
Protease Inhibition (% of WT) [10]: 40 % of WT
Protease Inhibition (% of WT) [11]: 350 % of WT
B1: Variant A2M, bait region SEQ ID NO 108 (other)
chain: SVSGKPQYMVLVPSLLHTETTEKGCVLLSYLNETVTVSASLESVRGNRSLFTDLEAENDVLHCVAFAVPKSSSNEEVMFLTVQVKGPTQEFKKRTTVMVKNEDSLVFVQTDKSIYKPGQTVKFRVVSMDENFHPLNELIPLVYIQDPKGNRIAQWQSFQLEGGLKQFSFPLSSEPFQGSYKVVVQKKSGGRTEHPFTVEEFVLPKFEVQVTVPKIITILEEEMNVSVCGLYTYGKPVPGHVTVSICRKYSDASDCHGEDSQAFCEKFSGQLNSHGCFYQQVKTKVFQLKRKEYEMKLHTEAQIQEEGTVVELTGRQSSEITRTITKLSFVKVDSHFRQGIPFFGQVRLVDGKGVPIPNKVIFIRGNEANYYSNATTDEHGLVQFSINTTNVMGTSLTVRVNYKDRSPCYGYQWVSEEHEEAHHTAYLVFSPSKSFVHLEPMSHELPCGHTQTVQAHYILNGGTLLGLKKLSFYYLIMAKGGIVRTGTHGLLVKQEDMKGHFSISIPVKSDIAPVARLLIYAVLPTGDVIGDSAKYDVENCLANKVDLSFSPSQSLPASHAHLRVTAAPQSVCALRAVDQSVLLMKPDAELSASSVYNLLPEKDLTGFPGPLNDQDDEDCINRHNVYINGITYTPVSSTNEKDMYSFLEDMGLKAFTNSKIRKPKMCPQLEQYEMHGPEGLRVGEAIPMSIPTSEDLVVQIPENFFGVKLRKYFPETWIWDLVVVNSAGVAEVGVTVPDTITEWKAGAFCLSEDAGLGISSTASLRAFQPFFVELTMPYSVIRGEAFTLKATVLNYLPKCIRVSVQLEASPAFLAVPVEKEQAPHCICANGRQTVSWAVTPKSLGNVNFTVSAEALESQELCGTEVPSVPEHGRKDTVIKPLLVEPEGLEKETTFNSLLCPSGGEVSEELSLKLPPNVVEESARASVSVLGDILGSAMQNTQNLLQMPYGCGEQNMVLFAPNIYVLDYLNETQQLTPEIKSKAIGYLNTGYQRQLNYKHYDGSYSTFGERYGRNQGNTWLTAFVLKTFAQARAYIFIDEAHITQALIWLSQRQKDNGCFRSSGSLLNNAIKGGVEDEVTLSAYITIALLEIPLTVTHPVVRNALFCLESAWKTAQEGDHGSHVYTKALLAYAFALAGNQDKRKEVLKSLNEEAVKKDNSVHWERPQKPKAPVGHFYEPQAPSAEVEMTSYVLLAYLTAQPAPTSEDLTSATNIVKWITKQQNAQGGFSSTQDTVVALHALSKYGAATFTRTGKAAQVTIQSSGTFSSKFQVDNNNRLLLQQVSLPELPGEYSMKVTGEGCVYLQTSLKYNILPEKEEFPFALGVQTLPQTCDEPKAHTSFQISLSVSYTGSRSASNMAIVDVKMVSGFIPLKPTVKMLERSNHVSRTEVSSNHVLIYLDKVSNQTLSLFFTVLQDVPVRDLKPAIVKVYDYYETDEFAIAEYNAPCSKDLGNADYKDDDDKGASHHHHHH

Protease Inhibition (% of WT) [1]: 50 % of WT
Protease Inhibition (% of WT) [3]: 100 % of WT
Protease Inhibition (% of WT) [12]: 100 % of WT
Protease Inhibition (% of WT) [4]: 100 % of WT
Protease Inhibition (% of WT) [5]: 70 % of WT
Protease Inhibition (% of WT) [6]: 250 % of WT
Protease Inhibition (% of WT) [7]: 350 % of WT
Protease Inhibition (% of WT) [8]: 100 % of WT
Protease Inhibition (% of WT) [9]: 80 % of WT
Protease Inhibition (% of WT) [10]: 50 % of WT
Protease Inhibition (% of WT) [11]: 200 % of WT
B2: Variant A2M, bait region SEQ ID NO 96 (other)
chain: SVSGKPQYMVLVPSLLHTETTEKGCVLLSYLNETVTVSASLESVRGNRSLFTDLEAENDVLHCVAFAVPKSSSNEEVMFLTVQVKGPTQEFKKRTTVMVKNEDSLVFVQTDKSIYKPGQTVKFRVVSMDENFHPLNELIPLVYIQDPKGNRIAQWQSFQLEGGLKQFSFPLSSEPFQGSYKVVVQKKSGGRTEHPFTVEEFVLPKFEVQVTVPKIITILEEEMNVSVCGLYTYGKPVPGHVTVSICRKYSDASDCHGEDSQAFCEKFSGQLNSHGCFYQQVKTKVFQLKRKEYEMKLHTEAQIQEEGTVVELTGRQSSEITRTITKLSFVKVDSHFRQGIPFFGQVRLVDGKGVPIPNKVIFIRGNEANYYSNATTDEHGLVQFSINTTNVMGTSLTVRVNYKDRSPCYGYQWVSEEHEEAHHTAYLVFSPSKSFVHLEPMSHELPCGHTQTVQAHYILNGGTLLGLKKLSFYYLIMAKGGIVRTGTHGLLVKQEDMKGHFSISIPVKSDIAPVARLLIYAVLPTGDVIGDSAKYDVENCLANKVDLSFSPSQSLPASHAHLRVTAAPQSVCALRAVDQSVLLMKPDAELSASSVYNLLPEKDLTGFPGPLNDQDDEDCINRHNVYINGITYTPVSSTNEKDMYSFLEDMGLKAFTNSKIRKPKMCPQLEQYEMHGPEGLRVGEGEGEGEGFYESDVMGRGHARLVHVEEPHTKLLRKYFPETWIWDLVVVNSAGVAEVGVTVPDTITEWKAGAFCLSEDAGLGISSTASLRAFQPFFVELTMPYSVIRGEAFTLKATVLNYLPKCIRVSVQLEASPAFLAVPVEKEQAPHCICANGRQTVSWAVTPKSLGNVNFTVSAEALESQELCGTEVPSVPEHGRKDTVIKPLLVEPEGLEKETTFNSLLCPSGGEVSEELSLKLPPNVVEESARASVSVLGDILGSAMQNTQNLLQMPYGCGEQNMVLFAPNIYVLDYLNETQQLTPEIKSKAIGYLNTGYQRQLNYKHYDGSYSTFGERYGRNQGNTWLTAFVLKTFAQARAYIFIDEAHITQALIWLSQRQKDNGCFRSSGSLLNNAIKGGVEDEVTLSAYITIALLEIPLTVTHPVVRNALFCLESAWKTAQEGDHGSHVYTKALLAYAFALAGNQDKRKEVLKSLNEEAVKKDNSVHWERPQKPKAPVGHFYEPQAPSAEVEMTSYVLLAYLTAQPAPTSEDLTSATNIVKWITKQQNAQGGFSSTQDTVVALHALSKYGAATFTRTGKAAQVTIQSSGTFSSKFQVDNNNRLLLQQVSLPELPGEYSMKVTGEGCVYLQTSLKYNILPEKEEFPFALGVQTLPQTCDEPKAHTSFQISLSVSYTGSRSASNMAIVDVKMVSGFIPLKPTVKMLERSNHVSRTEVSSNHVLIYLDKVSNQTLSLFFTVLQDVPVRDLKPAIVKVYDYYETDEFAIAEYNAPCSKDLGNADYKDDDDKGASHHHHHH
